This note sets out measurements from publication PMC5623700.

The term Kd denotes the concentration at which binding is half-saturated. A lower Kd goes with tighter binding.

Test [1] deals with human FcγRI with a C-terminal AVI-tag and C-terminal His-tag (Sino Biological) (human) (UniProt P12314). Put plainly: SPR; Biacore T200, single-cycle kinetics; biotinylated FcγRI captured on a CAPchip, IgG1 injected at 0.06-5 nM; HBS-EP+; 37 °C; 1:1 kinetic model; KD observed. Background: SPR reads the build-up and loss of mass on a sensor chip optically.
UniProt P12314, sequence (P12314 16-292): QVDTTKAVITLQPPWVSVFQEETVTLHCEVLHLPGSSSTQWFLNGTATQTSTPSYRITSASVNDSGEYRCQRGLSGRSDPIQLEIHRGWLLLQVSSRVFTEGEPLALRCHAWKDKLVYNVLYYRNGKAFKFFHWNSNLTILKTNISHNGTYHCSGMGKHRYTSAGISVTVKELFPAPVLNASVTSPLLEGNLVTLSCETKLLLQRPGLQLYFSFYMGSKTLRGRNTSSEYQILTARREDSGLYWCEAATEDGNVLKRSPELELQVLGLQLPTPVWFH
Test [2] has as its target human FcRn (human FCGRT & B2M heterodimer) (human) (UniProt P55899). Put plainly: BLI; Octet Red384; FcRn amine-coupled to AR2G tips; 320 nM IgG1 associated at pH 6 and dissociated at pH 7.2; fraction bound 5 s after the start of dissociation (response at 0 s = 100%). A general note: Biolayer interferometry detects binding as a change in optical thickness at a sensor tip.

The target of test [3] is human FcγRI with a C-terminal AVI-tag and C-terminal His-tag (Sino Biological) (human) (UniProt P12314). The test can be described thus: SPR; Biacore T200, single-cycle kinetics; biotinylated FcγRI captured on a CAPchip, IgG1 injected at 0.06-5 nM; HBS-EP+; 37 °C; 1:1 kinetic model; KD observed. The source holds these as a separate data set.
In test [4] the target is human FcRn (human FCGRT & B2M heterodimer) (human) (UniProt P55899). The test can be described thus: BLI; Octet Red384, multicycle kinetics; FcRn amine-coupled to AR2G tips, IgG1 2.5-80 nM; association and dissociation at pH 6 (50 mM phosphate, 150 mM NaCl, 0.1% Tween 20); heterogeneous ligand model; KD observed.
The target in test [5] is recombinant human FcγRIIIa (human) (UniProt P08637). The test can be described thus: SPR; SPR imaging (IBIS MX96); biotinylated Fcγ receptors on a streptavidin G-Strep SensEye sensor, IgG injected; HBS pH 7.2/0.05% Tween-80; binding level at equilibrium (2 min) relative to a reference sample set to 100%; 50 and 250 μg/mL IgG1 (FcγRIIa, FcγRIIIa) or 250 and 1000 μg/mL (FcγRIIb, FcγRIIIb); corrected for decay of the surface.
UniProt P08637, sequence (P08637 17-254): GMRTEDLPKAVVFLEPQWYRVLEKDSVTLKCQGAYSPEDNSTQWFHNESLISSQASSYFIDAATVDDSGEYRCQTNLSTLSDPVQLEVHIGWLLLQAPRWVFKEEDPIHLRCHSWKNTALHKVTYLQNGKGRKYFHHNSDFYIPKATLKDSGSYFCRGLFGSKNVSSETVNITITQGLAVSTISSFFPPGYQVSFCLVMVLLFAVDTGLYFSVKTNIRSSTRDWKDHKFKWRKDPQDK

Test [6] deals with recombinant human FcγRIIIb (human) (UniProt O75015). The test is described as above.
UniProt O75015, sequence (O75015 17-200): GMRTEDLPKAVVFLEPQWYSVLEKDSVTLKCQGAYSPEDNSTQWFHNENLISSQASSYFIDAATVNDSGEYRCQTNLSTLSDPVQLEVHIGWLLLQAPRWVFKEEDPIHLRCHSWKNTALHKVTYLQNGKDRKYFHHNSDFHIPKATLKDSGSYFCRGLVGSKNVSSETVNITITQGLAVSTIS
Test [7] addresses recombinant human FcγRIIa (human) (UniProt P12318). The description is as above.
UniProt P12318, sequence (P12318 34-317): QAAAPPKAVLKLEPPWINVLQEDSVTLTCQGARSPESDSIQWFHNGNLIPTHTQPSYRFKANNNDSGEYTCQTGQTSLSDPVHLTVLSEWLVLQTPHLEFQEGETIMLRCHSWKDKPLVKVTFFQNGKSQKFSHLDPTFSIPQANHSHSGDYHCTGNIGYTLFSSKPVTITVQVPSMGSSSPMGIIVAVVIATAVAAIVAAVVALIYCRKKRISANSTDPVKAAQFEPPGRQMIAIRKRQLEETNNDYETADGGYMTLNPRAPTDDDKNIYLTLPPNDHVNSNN
The target in test [8] is recombinant human FcγRIIb (human) (UniProt P31994). The test is described as above.
UniProt P31994, sequence (P31994 43-310): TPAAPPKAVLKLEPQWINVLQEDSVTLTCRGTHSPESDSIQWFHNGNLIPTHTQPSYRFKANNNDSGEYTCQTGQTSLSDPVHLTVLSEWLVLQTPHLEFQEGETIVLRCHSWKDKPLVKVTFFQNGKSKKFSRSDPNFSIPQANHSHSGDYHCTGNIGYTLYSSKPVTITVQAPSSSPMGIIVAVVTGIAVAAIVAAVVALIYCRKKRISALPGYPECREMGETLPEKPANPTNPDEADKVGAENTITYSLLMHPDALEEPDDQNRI
In test [9] the target is T1, neonatal Fc receptor (FcRn), FCGRT + beta2-microglobulin heterodimer (UniProt P55899+P61769). Put plainly: biolayer interferometry (Octet Red384), dissociation after a pH switch. As to conditions: pH 7.2; 150 mM NaCl; association in 50 mM phosphate pH 6; dissociation in 50 mM phosphate pH 7.2 (Methods; Results and Discussion say pH 7.4).
T1 sequence (P55899 24-297, chain 1 of 2): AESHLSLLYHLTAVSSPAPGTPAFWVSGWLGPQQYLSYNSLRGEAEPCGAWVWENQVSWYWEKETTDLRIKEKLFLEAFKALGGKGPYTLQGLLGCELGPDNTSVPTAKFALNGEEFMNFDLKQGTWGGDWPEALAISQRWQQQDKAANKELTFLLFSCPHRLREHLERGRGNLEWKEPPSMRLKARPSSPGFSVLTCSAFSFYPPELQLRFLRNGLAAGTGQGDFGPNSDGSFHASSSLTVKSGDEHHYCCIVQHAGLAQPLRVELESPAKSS
T1 sequence (P61769 21-119, chain 2 of 2, further chain): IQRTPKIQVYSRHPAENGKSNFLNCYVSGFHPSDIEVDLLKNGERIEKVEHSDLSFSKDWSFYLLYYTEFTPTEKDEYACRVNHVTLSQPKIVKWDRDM
For test [10], the target named is T1, neonatal Fc receptor (FcRn), FCGRT + beta2-microglobulin heterodimer. The description is as above. As to conditions: pH 7.2; 150 mM NaCl; association in 50 mM phosphate pH 6; dissociation in 50 mM phosphate pH 7.2 (Methods; Results and Discussion say pH 7.4). This is another data set of the same source.
In test [11] the target is human FcRn (human FCGRT & B2M heterodimer) (human) (UniProt P55899). Put plainly: BLI; Octet Red384, multicycle kinetics; FcRn amine-coupled to AR2G tips, IgG1 2.5-80 nM; association and dissociation at pH 6 (50 mM phosphate, 150 mM NaCl, 0.1% Tween 20); heterogeneous ligand model; KD observed. The source holds these as a separate data set.
Where [12] appears, read: stress condition 40 °C‐1000 r.p.m._24 h.
[13] abbreviates: stress condition 40 °C‐1000 r.p.m._48 h.

Like-named read-outs stand apart in the source and are kept apart here. A value given as a limit tells only on which side of the number the result lay.

“covalent dimer fraction of IgG1 (DSS cross-linked, preparative SEC) (antibody)” displayed a Kd in [1] of 0.08 nM. Also, in test [2], the fraction bound at neutral pH stood at 17.3%.
On to “fully deglycosylated human IgG1 (PNGase F) (antibody)”, for which the maximum response in test [3] was found to be 5 RU. The substance further had a Kd in test [4] of 6.3 nM.
With “human IgG1 after accelerated asparagine deamidation at pH 8 (antibody)”, the fraction bound at neutral pH in [2] (stress condition pH8.0_48 h) worked out at 7.8%; in [2] (stress condition pH8.0_72 h) it was 6.5%.
In the case of “human IgG1 after accelerated methionine oxidation with H2O2 (antibody)”, the Kd in test [3] (stress condition H2O2_0.1%) amounted to 0.93 nM; in [3] (stress condition H2O2_0.25%) it was 0.53 nM; in test [3] (stress condition H2O2_0.5%), 0.42 nM; in test [4], 6.2 nM. Further, in test [2], the fraction bound at neutral pH was 6.4%.
Take “human IgG1 after repeated freeze/thaw cycles (antibody)”: the results for the fraction bound at neutral pH in [2] (stress condition F‐T 1), in [2] (stress condition F‐T 5) and in test [2] (stress condition F‐T 10) were 8.4%, 8.1% and 7.4%, respectively. Further, the dissociation constant (Kd) in test [4] (stress condition F‐T 1) came out at 5.7 nM; in test [4] (stress condition F‐T 10), 5.2 nM. For the same substance, the relative binding (% of reference) in test [5] (stress condition F‐T 1) was 80.1%; in [5] (stress condition F‐T 5), 103%; in [5] (stress condition F‐T 10) it was 98.7%; in [6] (stress condition F‐T 1) it was 106%; in [6] (stress condition F‐T 5) it was 105%; in test [6] (stress condition F‐T 10) it was 102%. Further, the relative binding (% of reference) in test [7] (stress condition F‐T 1) came to 102%; in test [7] (stress condition F‐T 5), 92.3%; in test [7] (stress condition F‐T 10) it was 85.9%; in test [8] (stress condition F‐T 1), 102%; in test [8] (stress condition F‐T 5) it was 97.2%; in [8] (stress condition F‐T 10), 95.9%.
“human IgG1 after thermal/shake stress at 40 °C and 1000 r.p.m. (antibody)”: the Kd in test [3] (setting [12]) amounted to 0.53 nM; in test [3] (setting [13]), 0.45 nM; in [4] (setting [12]), 5.5 nM; in test [4] (setting [13]) it was 5 nM; in test [4] (stress condition 40 °C‐1000 r.p.m._72 h), 5.4 nM. Moreover, the results for the fraction bound at neutral pH in test [2] (setting [12]) and in [2] (setting [13]) were 7.9% and 7.3%, respectively.
Take “human IgG1 heated to 70 °C for 15 min at 300 r.p.m. (antibody)”: the relative binding (% of reference) in test [5] is 72.7%; in test [6], 127%; in test [7] it was 62.5%; in test [8] it was 93.4%.
Turning to “human IgG1 heated to 75 °C for 15 min at 300 r.p.m. (antibody)”, the relative binding (% of reference) is 389% in [5], > 1000% in [6], > 1000% in test [7] and > 1000% in test [8].
With “human IgG1 kept at 40 °C in HBS buffer pH 7.2 (control of the deamidation stress) (antibody)”, the equilibrium dissociation constant (Kd) in [3] (stress condition pH7.2_48 h) is 0.59 nM; in [3] (stress condition pH7.2_72 h), 0.48 nM; in test [3] (stress condition pH7.2_96 h), 0.58 nM; in test [4] (stress condition pH7.2_48 h), 5.5 nM; in [4] (stress condition pH7.2_72 h), 6.1 nM; in test [4] (stress condition pH7.2_96 h), 5.6 nM. Besides, the fraction bound at neutral pH in test [2] was found to be 7.6%.
For the substance “human IgG1 monoclonal antibody, reference (unstressed)”, the Fraction bound (5 s after start of dissociation at neutral pH) in test [9] was 8.3%; in test [10] it was 7.5%.
In the case of “human IgG1 with 3% afucosylation (antibody)”, the Kd amounted to 0.44 nM in test [3] and 3.7 nM in [4]. In addition, the fraction bound at neutral pH in test [2] stood at 14.3%. The relative binding (% of reference) was 79.7% in test [5], 83.9% in test [6], 102% in test [7] and 90.6% in test [8].
In the case of “human IgG1 with 8% afucosylation (antibody)”, the equilibrium dissociation constant (Kd) in test [3] amounted to 0.43 nM; in test [4], 3.7 nM.
For “human IgG1 with 70% afucosylation (antibody)”, the dissociation constant Kd was 0.33 nM in test [3] and 3.8 nM in test [4]. Besides, the fraction bound at neutral pH in test [2] stood at 15.7%. Moreover, the relative binding (% of reference) in [5] turned out to be 159%; in test [6] it was 186%; in [7], 104%; in test [8], 110%.
For the substance “human IgG1, 0% deglycosylated control of the deglycosylation (antibody)”, the Kd is 0.52 nM in [3] and 4.9 nM in [4].
Regarding human IgG1, 1 freeze/thaw cycle, in test [9], the Fraction bound (5 s after start of dissociation at neutral pH) was 8.4%.
The same measure, in the same setting: in the case of human IgG1, 5 freeze/thaw cycles it was 8.1%.
Same read-out and setting: the value for human IgG1, 10 freeze/thaw cycles was 7.4%; that for human IgG1, 40 °C-1000 r.p.m._24 h was 7.9%; that for human IgG1, 40 °C-1000 r.p.m._48 h was 7.3%.
Turning to human IgG1, 40 °C-1000 r.p.m._72 h, the Fraction bound (5 s after start of dissociation at neutral pH) in test [9] turned out to be 8.6%.
On the same count and under the same terms, in the case of human IgG1, AF 3 (3% afucosylated) it was 14.3%; in that of human IgG1, AF 70 (70% afucosylated), 15.7%.
Consider “human IgG1, DG 0 (glycosylated control of the deglycosylation experiment)”, for which the Fraction bound (5 s after start of dissociation at neutral pH) in test [9] worked out at 8.5%.
Same read-out and setting: in the case of “human IgG1, DG 100 (fully deglycosylated with PNGase F)” it was 4.1%.
As for human IgG1, H2O2_0.5% oxidised, the Fraction bound (5 s after start of dissociation at neutral pH) in test [9] stood at 7.7%.
For human IgG1, H2O2_0.25% oxidised, the Fraction bound (5 s after start of dissociation at neutral pH) in test [9] was found to be 6.4%.
As for human IgG1, deamidated pH8.0_48 h, the Fraction bound (5 s after start of dissociation at neutral pH) in [9] turned out to be 7.8%.
Regarding human IgG1, deamidated pH8.0_72 h, the Fraction bound (5 s after start of dissociation at neutral pH) in test [9] was 6.5%.
Take human IgG1, deamidated pH8.0_96 h: the Fraction bound (5 s after start of dissociation at neutral pH) in test [9] was 10%.
Consider “human IgG1, monomer fraction of the DSS cross-linking preparation”, for which, in test [10], the Fraction bound (5 s after start of dissociation at neutral pH) is 8.9%.
Take human IgG1, pH7.2_48 h control: the Fraction bound (5 s after start of dissociation at neutral pH) in test [9] was determined as 7.6%.
As for human IgG1, pH7.2_72 h control, the Fraction bound (5 s after start of dissociation at neutral pH) in test [9] amounted to 8.3%.
As to human IgG1, pH7.2_96 h control, the Fraction bound (5 s after start of dissociation at neutral pH) in [9] is 7.9%.
As to “monomer fraction of the DSS-treated IgG1 sample (preparative SEC) (antibody)”, the figures for the dissociation constant (Kd) in test [1] and in test [11] were 0.52 nM and 7 nM, respectively. Further, in test [2], the fraction bound at neutral pH was 8.9%.
